Target: T1, 6xHis-SUMO-Gin4 (S. cerevisiae, UniProt Q12263 1-1142)
T1 sequence (looked up): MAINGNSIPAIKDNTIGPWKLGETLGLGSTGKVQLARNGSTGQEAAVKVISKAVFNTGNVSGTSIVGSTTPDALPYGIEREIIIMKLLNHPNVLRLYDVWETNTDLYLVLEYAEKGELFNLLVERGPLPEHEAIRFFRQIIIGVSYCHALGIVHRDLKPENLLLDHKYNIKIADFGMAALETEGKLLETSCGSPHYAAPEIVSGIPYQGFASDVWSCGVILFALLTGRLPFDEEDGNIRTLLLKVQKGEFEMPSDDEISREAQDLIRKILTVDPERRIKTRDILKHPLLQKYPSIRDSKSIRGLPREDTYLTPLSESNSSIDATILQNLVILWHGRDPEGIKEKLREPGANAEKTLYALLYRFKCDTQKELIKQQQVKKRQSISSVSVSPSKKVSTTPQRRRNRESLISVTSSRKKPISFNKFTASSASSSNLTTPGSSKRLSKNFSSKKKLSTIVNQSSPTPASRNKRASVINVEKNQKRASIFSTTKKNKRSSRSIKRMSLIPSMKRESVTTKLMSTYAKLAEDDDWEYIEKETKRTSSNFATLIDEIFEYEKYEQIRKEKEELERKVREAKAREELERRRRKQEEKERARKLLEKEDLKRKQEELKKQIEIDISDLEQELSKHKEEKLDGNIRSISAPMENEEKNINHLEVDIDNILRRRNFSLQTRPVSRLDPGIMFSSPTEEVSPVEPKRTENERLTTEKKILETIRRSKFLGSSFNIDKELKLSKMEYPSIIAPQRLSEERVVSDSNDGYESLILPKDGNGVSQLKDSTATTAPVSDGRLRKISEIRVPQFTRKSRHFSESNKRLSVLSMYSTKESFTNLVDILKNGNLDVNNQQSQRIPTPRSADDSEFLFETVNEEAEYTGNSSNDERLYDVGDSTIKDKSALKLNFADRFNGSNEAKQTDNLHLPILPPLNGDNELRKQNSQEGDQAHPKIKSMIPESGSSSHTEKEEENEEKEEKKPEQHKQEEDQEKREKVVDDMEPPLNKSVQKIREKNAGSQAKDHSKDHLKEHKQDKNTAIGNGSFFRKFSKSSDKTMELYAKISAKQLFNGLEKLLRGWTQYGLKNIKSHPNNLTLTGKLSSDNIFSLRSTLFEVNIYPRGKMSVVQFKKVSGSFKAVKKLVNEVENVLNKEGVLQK
Test: pull-down

- binding result: binds
B1: GST-Elm1^WT (enzyme, S. cerevisiae, UniProt P32801 1-640, looked up)
chain: MSPRQLIPTLIPEWAPLSQQSCIREDELDSPPITPTSQTSSFGSSFSQQKPTYSTIIGENIHTILDEIRPYVKKITVSDQDKKTINQYTLGVSAGSGQFGYVRKAYSSTLGKVVAVKIIPKKPWNAQQYSVNQVMRQIQLWKSKGKITTNMSGNEAMRLMNIEKCRWEIFAASRLRNNVHIVRLIECLDSPFSESIWIVTNWCSLGELQWKRDDDEDILPQWKKIVISNCSVSTFAKKILEDMTKGLEYLHSQGCIHRDIKPSNILLDEEEKVAKLSDFGSCIFTPQSLPFSDANFEDCFQRELNKIVGTPAFIAPELCHLGNSKRDFVTDGFKLDIWSLGVTLYCLLYNELPFFGENEFETYHKIIEVSLSSKINGNTLNDLVIKRLLEKDVTLRISIQDLVKVLSRDQPIDSRNHSQISSSSVNPVRNEGPVRRFFGRLLTKKGKKKTSGKGKDKVLVSATSKVTPSIHIDEEPDKECFSTTVLRSSPDSSDYCSSLGEEAIQVTDFLDTFCRSNESLPNLTVNNDKQNSDMKTDRSESSSHSSLKIPTPIKAMIRLKSSPKENGNRTHINCSQDKPSSPLMDRTVGKRTVNNSGARKLAHSSNILNFKAYINSEDSDIRETVEDVKTYLNFADNGQI

Reference: PMC10913813 (The Journal of Cell Biology, 2024)
